The values below come from IntAct's records for PubMed 16002617.

B1: Cyclic dof factor 1 (Arabidopsis thaliana (Mouse-ear cress)), Q8W1E3 (parent)
chain: MLETKDPAIKLFGMKIPFPTVLEVADEEEEKNQNKTLTDQSEKDKTLKKPTKILPCPRCNSMETKFCYYNNYNVNQPRHFCKACQRYWTSGGTMRSVPIGAGRRKNKNNSPTSHYHHVTISETNGPVLSFSLGDDQKVSSNRFGNQKLVARIENNDERSNNNTSNGLNCFPGVSWPYTWNPAFYPVYPYWSMPVLSSPVSSSPTSTLGKHSRDEDETVKQKQRNGSVLVPKTLRIDDPNEAAKSSIWTTLGIKNEVMFNGFGSKKEVKLSNKEETETSLVLCANPAALSRSINFHEQM

In this test the parent is B1. The conditions noted are these: with ado3_arath ADO3, Q9C9W9.
Chain of ado3_arath ADO3, Q9C9W9 (Q9C9W9 whole entry): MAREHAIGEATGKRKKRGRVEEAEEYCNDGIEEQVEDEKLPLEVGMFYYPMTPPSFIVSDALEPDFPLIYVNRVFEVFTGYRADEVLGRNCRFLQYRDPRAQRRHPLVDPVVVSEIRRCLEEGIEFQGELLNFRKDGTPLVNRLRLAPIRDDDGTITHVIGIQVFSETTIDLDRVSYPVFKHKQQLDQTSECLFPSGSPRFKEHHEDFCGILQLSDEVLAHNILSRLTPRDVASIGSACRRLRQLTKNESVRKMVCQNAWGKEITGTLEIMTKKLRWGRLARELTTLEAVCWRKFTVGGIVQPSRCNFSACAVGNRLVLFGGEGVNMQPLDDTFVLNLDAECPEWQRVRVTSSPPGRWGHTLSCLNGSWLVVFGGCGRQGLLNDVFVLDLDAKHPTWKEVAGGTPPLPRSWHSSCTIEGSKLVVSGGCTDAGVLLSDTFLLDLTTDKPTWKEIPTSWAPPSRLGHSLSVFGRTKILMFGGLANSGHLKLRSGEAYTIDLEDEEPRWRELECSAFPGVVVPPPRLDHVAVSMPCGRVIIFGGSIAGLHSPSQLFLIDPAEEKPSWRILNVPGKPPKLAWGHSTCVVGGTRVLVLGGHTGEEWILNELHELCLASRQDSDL
As to MLETKDPAIKLFGMKIPFPTVLEVADEEEEKNQNKTLTDQSEKDKTLKKPTKILPCPRCNSMETKFCYYNNYNVNQPRHFCKACQRYWTSGGTMRSVPIGAGRRKNKNNSPTSHYHHVTISETNGPVLSFSLGDDQKVSSNRFGNQKLVARIENNDERSNNNTSNGLNCFPGVSWPYTWNPAFYPVYPYWSMPVLSSPVSSSPTSTLGKHSRDEDETVKQKQRNGSVLVPKTLRIDDPNEAAKSSIWTTLGIANEVMFNGFGSKKEVKLSNKEETETSLVLCANPAALSRSINFHEQM [K253A], the “effect of a mutation on the interaction” value is reported as “decreasing interaction”.
